Bridges are numbered along the chain shown (N, C = ends). [ ]: non-standard residue; d: D form. The star is where a group is joined. Trp(7-Me) = Cc1cccc2c(C[C@H](N)C(=O)O)c[nH]c12; 2Nal = N[C@@H](Cc1ccc2ccccc2c1)C(=O)O; AEF = NCCOc1ccc(C[C@H](N)C(=O)O)cc1; αMeF = C[C@](N)(Cc1ccccc1)C(=O)O; Pen = CC(C)(S)[C@H](N)C(=O)O; αMeK = C[C@](N)(CCCCN)C(=O)O; 3Quin = not defined here; Ac5c = NC1(C(=O)O)CCCC1; Thp = NC1(C(=O)O)CCOCC1; Piv = CC(C)(C)C(=O)*; Propionyl = CCC(=O)*; Tfa = O=C(C(F)(F)F)*
T1: human IL-23R (interleukin-23 receptor) (human, UniProt Q5VWK5 24-629)
T1 sequence (looked up): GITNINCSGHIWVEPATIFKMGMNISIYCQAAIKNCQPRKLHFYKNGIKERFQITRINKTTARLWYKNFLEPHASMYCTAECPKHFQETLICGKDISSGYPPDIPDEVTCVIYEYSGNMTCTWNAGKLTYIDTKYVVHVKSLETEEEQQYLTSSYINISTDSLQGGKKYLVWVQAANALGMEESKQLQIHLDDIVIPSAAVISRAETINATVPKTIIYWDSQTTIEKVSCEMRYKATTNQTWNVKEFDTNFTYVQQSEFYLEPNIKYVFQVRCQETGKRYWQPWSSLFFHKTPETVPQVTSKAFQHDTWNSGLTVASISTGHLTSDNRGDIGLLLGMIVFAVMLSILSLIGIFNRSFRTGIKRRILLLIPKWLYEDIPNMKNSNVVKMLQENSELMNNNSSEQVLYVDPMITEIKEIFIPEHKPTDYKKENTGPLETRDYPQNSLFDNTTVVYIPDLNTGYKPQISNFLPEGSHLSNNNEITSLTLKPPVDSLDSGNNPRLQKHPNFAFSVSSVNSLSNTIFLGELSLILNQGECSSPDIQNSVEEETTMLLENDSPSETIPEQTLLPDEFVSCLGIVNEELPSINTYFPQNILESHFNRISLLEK

B1: Compound No. 90 (peptide)
peptide: Ac-[dR][Pen]NT[Trp(7-Me)]Q[Pen][AEF][2Nal][Thp]EN[Thp]-NH2
modifications: disulfide 2-7
SMILES: CC(=O)N[C@H](CCCNC(=N)N)C(=O)N[C@@H]1C(=O)N[C@@H](CC(N)=O)C(=O)N[C@@H]([C@@H](C)O)C(=O)N[C@@H](Cc2c[nH]c3c(C)cccc23)C(=O)N[C@@H](CCC(N)=O)C(=O)N[C@H](C(=O)N[C@@H](Cc2ccc(OCCN)cc2)C(=O)N[C@@H](Cc2ccc3ccccc3c2)C(=O)NC2(C(=O)N[C@@H](CCC(=O)O)C(=O)N[C@@H](CC(N)=O)C(=O)NC3(C(N)=O)CCOCC3)CCOCC2)C(C)(C)SSC1(C)C
B2: Compound No. 93 (peptide)
peptide: Ac-[dR][Pen]NT[Trp(7-Me)]Q[Pen][AEF][2Nal][Ac5c]EN[αMeF]-NH2
modifications: disulfide 2-7
SMILES: CC(=O)N[C@H](CCCNC(=N)N)C(=O)N[C@@H]1C(=O)N[C@@H](CC(N)=O)C(=O)N[C@@H]([C@@H](C)O)C(=O)N[C@@H](Cc2c[nH]c3c(C)cccc23)C(=O)N[C@@H](CCC(N)=O)C(=O)N[C@H](C(=O)N[C@@H](Cc2ccc(OCCN)cc2)C(=O)N[C@@H](Cc2ccc3ccccc3c2)C(=O)NC2(C(=O)N[C@@H](CCC(=O)O)C(=O)N[C@@H](CC(N)=O)C(=O)N[C@@](C)(Cc3ccccc3)C(N)=O)CCCC2)C(C)(C)SSC1(C)C
B3: Compound No. 1 (peptide)
peptide: Ac-[Pen]NT[Trp(7-Me)]K(Ac)[Pen][AEF][3Quin][αMeK]K(Ac)N[dL]-NH2
modifications: disulfide 1-6; reading uncertain; also: printed as Ac-[Pen]-N-T-[W(7-Me)]-[Lys(Ac)]-[Pen]-Phe[4-(2-aminoethoxy)]-[3-Quin]-[a-MeLys]-[Lys(Ac)]-N-[(D)Leu)]-NH2
B4: Compound No. 97 (peptide)
peptide: Ac-[dR][Pen]QTWQ[Pen][AEF][2Nal][Thp]EN[αMeF]-NH2
modifications: disulfide 2-7
SMILES: CC(=O)N[C@H](CCCNC(=N)N)C(=O)N[C@@H]1C(=O)N[C@@H](CCC(N)=O)C(=O)N[C@@H]([C@@H](C)O)C(=O)N[C@@H](Cc2c[nH]c3ccccc23)C(=O)N[C@@H](CCC(N)=O)C(=O)N[C@H](C(=O)N[C@@H](Cc2ccc(OCCN)cc2)C(=O)N[C@@H](Cc2ccc3ccccc3c2)C(=O)NC2(C(=O)N[C@@H](CCC(=O)O)C(=O)N[C@@H](CC(N)=O)C(=O)N[C@@](C)(Cc3ccccc3)C(N)=O)CCOCC2)C(C)(C)SSC1(C)C
B5: Compound No. 91 (peptide)
peptide: Ac-[dR][Pen]NT[Trp(7-Me)]Q[Pen][AEF][2Nal][Thp]EN[αMeF]-NH2
modifications: disulfide 2-7
SMILES: CC(=O)N[C@H](CCCNC(=N)N)C(=O)N[C@@H]1C(=O)N[C@@H](CC(N)=O)C(=O)N[C@@H]([C@@H](C)O)C(=O)N[C@@H](Cc2c[nH]c3c(C)cccc23)C(=O)N[C@@H](CCC(N)=O)C(=O)N[C@H](C(=O)N[C@@H](Cc2ccc(OCCN)cc2)C(=O)N[C@@H](Cc2ccc3ccccc3c2)C(=O)NC2(C(=O)N[C@@H](CCC(=O)O)C(=O)N[C@@H](CC(N)=O)C(=O)N[C@@](C)(Cc3ccccc3)C(N)=O)CCOCC2)C(C)(C)SSC1(C)C
B6: Compound No. 94 (peptide)
peptide: Ac-[dR][Pen]NT[Trp(7-Me)]K(Ac)[Pen][AEF][2Nal][Ac5c]EN[αMeF]-NH2
modifications: disulfide 2-7
SMILES: CC(=O)NCCCC[C@@H]1NC(=O)[C@H](Cc2c[nH]c3c(C)cccc23)NC(=O)[C@H]([C@@H](C)O)NC(=O)[C@H](CC(N)=O)NC(=O)[C@@H](NC(=O)[C@@H](CCCNC(=N)N)NC(C)=O)C(C)(C)SSC(C)(C)[C@@H](C(=O)N[C@@H](Cc2ccc(OCCN)cc2)C(=O)N[C@@H](Cc2ccc3ccccc3c2)C(=O)NC2(C(=O)N[C@@H](CCC(=O)O)C(=O)N[C@@H](CC(N)=O)C(=O)N[C@@](C)(Cc3ccccc3)C(N)=O)CCCC2)NC1=O
B7: Compound No. 95 (peptide)
peptide: Ac-[Pen]NTWK(Ac)[Pen][AEF][2Nal][αMeK]K(Ac)N[Thp]-NH2
modifications: disulfide 1-6
SMILES: CC(=O)NCCCC[C@@H]1NC(=O)[C@H](Cc2c[nH]c3ccccc23)NC(=O)[C@H]([C@@H](C)O)NC(=O)[C@H](CC(N)=O)NC(=O)[C@@H](NC(C)=O)C(C)(C)SSC(C)(C)[C@@H](C(=O)N[C@@H](Cc2ccc(OCCN)cc2)C(=O)N[C@@H](Cc2ccc3ccccc3c2)C(=O)N[C@@](C)(CCCCN)C(=O)N[C@@H](CCCCNC(C)=O)C(=O)N[C@@H](CC(N)=O)C(=O)NC2(C(N)=O)CCOCC2)NC1=O
B8: Compound No. 88 (peptide)
peptide: Ac-[dR][Pen]NTWK(Ac)[Pen][AEF][2Nal][Ac5c]EN[Thp]-NH2
modifications: disulfide 2-7
SMILES: CC(=O)NCCCC[C@@H]1NC(=O)[C@H](Cc2c[nH]c3ccccc23)NC(=O)[C@H]([C@@H](C)O)NC(=O)[C@H](CC(N)=O)NC(=O)[C@@H](NC(=O)[C@@H](CCCNC(=N)N)NC(C)=O)C(C)(C)SSC(C)(C)[C@@H](C(=O)N[C@@H](Cc2ccc(OCCN)cc2)C(=O)N[C@@H](Cc2ccc3ccccc3c2)C(=O)NC2(C(=O)N[C@@H](CCC(=O)O)C(=O)N[C@@H](CC(N)=O)C(=O)NC3(C(N)=O)CCOCC3)CCCC2)NC1=O
B9: Compound No. 6 (peptide)
peptide: Propionyl-[dR][Pen]QTWQ[Pen][AEF][2Nal][Thp]K(Tfa)N[Thp]-NH2
modifications: disulfide 2-7
SMILES: CCC(=O)N[C@H](CCCNC(=N)N)C(=O)N[C@@H]1C(=O)N[C@@H](CCC(N)=O)C(=O)N[C@@H]([C@@H](C)O)C(=O)N[C@@H](Cc2c[nH]c3ccccc23)C(=O)N[C@@H](CCC(N)=O)C(=O)N[C@H](C(=O)N[C@@H](Cc2ccc(OCCN)cc2)C(=O)N[C@@H](Cc2ccc3ccccc3c2)C(=O)NC2(C(=O)N[C@@H](CCCCNC(=O)C(F)(F)F)C(=O)N[C@@H](CC(N)=O)C(=O)NC3(C(N)=O)CCOCC3)CCOCC2)C(C)(C)SSC1(C)C
B10: Compound No. 7 (peptide)
peptide: Propionyl-[dR][Pen]QTWQ[Pen][AEF][2Nal][Thp]K(Piv)N[Thp]-NH2
modifications: disulfide 2-7
SMILES: CCC(=O)N[C@H](CCCNC(=N)N)C(=O)N[C@@H]1C(=O)N[C@@H](CCC(N)=O)C(=O)N[C@@H]([C@@H](C)O)C(=O)N[C@@H](Cc2c[nH]c3ccccc23)C(=O)N[C@@H](CCC(N)=O)C(=O)N[C@H](C(=O)N[C@@H](Cc2ccc(OCCN)cc2)C(=O)N[C@@H](Cc2ccc3ccccc3c2)C(=O)NC2(C(=O)N[C@@H](CCCCNC(=O)C(C)(C)C)C(=O)N[C@@H](CC(N)=O)C(=O)NC3(C(N)=O)CCOCC3)CCOCC2)C(C)(C)SSC1(C)C
B11: Compound No. 89 (peptide)
peptide: XNTXQXFXKKNF
modifications: Ac-[Pen]-N-T-[W(7-Me)]-Q-[Pen]-Phe[4-(2-aminoethoxy)]-[2-Nal]-[a-MeLys]-[Lys(Ac)]-N-[a-MePhe]-NH2; cyclized: Pen-Pen disulfide bond

Each binder was assayed against T1, human IL-23R (interleukin-23 receptor) (assay: cell-based or functional assay).

Binder	PBMC pSTAT3 IC50 (nM)	pStat3 HTRF (nM), IC50, DB cells IL23R pSTAT3 cell assay
B1	3.7 nM	–
B2	4.6 nM	–
B3	–	0.602 nM
B4	31 nM	–
B5	4.1 nM	–
B6	12 nM	–
B7	22 nM	–
B8	3.7 nM	–
B9	8.6 nM	2.46 nM
B10	8.6 nM	3.87 nM
B11	12 nM	–

Target: T1, human IL-23R (interleukin-23 receptor)
Assay: cell-based or functional assay
Remark: another data set of the same source

Binder	NK Cell Assay (nM), IC50, IFN-gamma after IL-23 and IL-18
B3	2.89 nM
B9	16.8 nM
B10	12.6 nM

From patent US20220402983A1 (Janssen / Centocor, published 2022)
